Experimental data: the supplement of paper PMC12855868

B1: library; numbered along this chain (parent)
chain: MAAAGGARLLRAASAVLGGPAGRWLHHAGSRAGSSGLLRNRGPGGSAEASRSLSVSARARSSSEDKITVHFINRDGETLTTKGKVGDSLLDVVVENNLDIDGFGACEGTLACSTCHLIFEDHIYEKLDAITDEENDMLDLAYGLTDRSRLGCQICLTKSMDNMTVRVPETVADARQSIDVGKTS

Variants of: B1
Test: scaled log2 fold change in cell abundance, elesclomol vs control (0 = silent mean, 1 = nonsense mean) (scaled log2 ratio); higher = higher viability under elesclomol (loss of FDX1 cuproptosis function)
Settings: glucose 10 mM
[1] = with ABC1 FDX1 KO, elesclomol 5 nM, 14 days
[2] = with HEK293T FDX1 KO, elesclomol 40 nM, 11 days
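Also: variant abundance is its share of total variant reads in each endpoint sample, from next-generation sequencing of the integrated ORF PCR-amplified out of genomic DNA.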

MAAAGGARLLRAASAVLGGPAGRWLHHAGSRAGSSGLLRNRGPGGSAEASRSLSVSARARSSSEDKITVHFINRDGETLTTKGKVGDSLLDVVVENNLDIDGFGACEGTLACSTCHLIFEDHIYEKLDAITDEENDMLDLAYGLTDRSRLGCQICLTKSMDNMTVRVPETVADARQSIDVGKAS [T183A]
scaled log2 fold change [1]: -0.44 | scaled log2 fold change [2]: -0.711

MAAAGGARLLRAASAVLGGPAGRWLHHAGSRAGSSGLLRNRGPGGSAEASRSLSVSARARSSSEDKITVHFINRDGETLTTKGKVGDSLLDVVVENNLDIDGFGACEGTLACSTCHLIFEDHIYEKLDAITDEENDMLDLAYGLTDRSRLGCQICLTKSMDNMTVRVPETVADARQSIDVGKES [T183E]
scaled log2 fold change [1]: -1.02 | scaled log2 fold change [2]: -0.187

MAAAGGARLLRAASAVLGGPAGRWLHHAGSRAGSSGLLRNRGPGGSAEASRSLSVSARARSSSEDKITVHFINRDGETLTTKGKVGDSLLDVVVENNLDIDGFGACEGTLACSTCHLIFEDHIYEKLDAITDEENDMLDLAYGLTDRSRLGCQICLTKSMDNMTVRVPETVADARQSIDVGKKS [T183K]
scaled log2 fold change [1]: -0.157 | scaled log2 fold change [2]: -0.436

MAAAGGARLLRAASAVLGGPAGRWLHHAGSRAGSSGLLRNRGPGGSAEASRSLSVSARARSSSEDKITVHFINRDGETLTTKGKVGDSLLDVVVENNLDIDGFGACEGTLACSTCHLIFEDHIYEKLDAITDEENDMLDLAYGLTDRSRLGCQICLTKSMDNMTVRVPETVADARQSIDVGKQS [T183Q]
scaled log2 fold change [1]: -0.0766

MAAAGGARLLRAASAVLGGPAGRWLHHAGSRAGSSGLLRNRGPGGSAEASRSLSVSARARSSSEDKITVHFINRDGETLTTKGKVGDSLLDVVVENNLDIDGFGACEGTLACSTCHLIFEDHIYEKLDAITDEENDMLDLAYGLTDRSRLGCQICLTKSMDNMTVRVPETVADARQSIDVGKVS [T183V]
scaled log2 fold change [1]: 0.00691 | scaled log2 fold change [2]: -0.191

MAAAGGARLLRAASAVLGGPAGRWLHHAGSRAGSSGLLRNRGPGGSAEASRSLSVSARARSSSEDKITVHFINRDGETLTTKGKVGDSLLDVVVENNLDIDGFGACEGTLACSTCHLIFEDHIYEKLDAITDEENDMLDLAYGLTDRSRLGCQICLTKSMDNMTVRVPETVADARQSIDVGKLS [T183L]
scaled log2 fold change [1]: -0.0402 | scaled log2 fold change [2]: -0.253

MAAAGGARLLRAASAVLGGPAGRWLHHAGSRAGSSGLLRNRGPGGSAEASRSLSVSARARSSSEDKITVHFINRDGETLTTKGKVGDSLLDVVVENNLDIDGFGACEGTLACSTCHLIFEDHIYEKLDAITDEENDMLDLAYGLTDRSRLGCQICLTKSMDNMTVRVPETVADARQSIDVGKSS [T183S]
scaled log2 fold change [1]: 0.172 | scaled log2 fold change [2]: -0.869

MAAAGGARLLRAASAVLGGPAGRWLHHAGSRAGSSGLLRNRGPGGSAEASRSLSVSARARSSSEDKITVHFINRDGETLTTKGKVGDSLLDVVVENNLDIDGFGACEGTLACSTCHLIFEDHIYEKLDAITDEENDMLDLAYGLTDRSRLGCQICLTKSMDNMTVRVPETVADARQSIDVGKMS [T183M]
scaled log2 fold change [1]: -0.197 | scaled log2 fold change [2]: -0.119

MAAAGGARLLRAASAVLGGPAGRWLHHAGSRAGSSGLLRNRGPGGSAEASRSLSVSARARSSSEDKITVHFINRDGETLTTKGKVGDSLLDVVVENNLDIDGFGACEGTLACSTCHLIFEDHIYEKLDAITDEENDMLDLAYGLTDRSRLGCQICLTKSMDNMTVRVPETVADARQSIDVGKCS [T183C]
scaled log2 fold change [1]: 0.0469 | scaled log2 fold change [2]: -0.686

MAAAGGARLLRAASAVLGGPAGRWLHHAGSRAGSSGLLRNRGPGGSAEASRSLSVSARARSSSEDKITVHFINRDGETLTTKGKVGDSLLDVVVENNLDIDGFGACEGTLACSTCHLIFEDHIYEKLDAITDEENDMLDLAYGLTDRSRLGCQICLTKSMDNMTVRVPETVADARQSIDVGKIS [T183I]
scaled log2 fold change [1]: 0.0224 | scaled log2 fold change [2]: -0.426

MAAAGGARLLRAASAVLGGPAGRWLHHAGSRAGSSGLLRNRGPGGSAEASRSLSVSARARSSSEDKITVHFINRDGETLTTKGKVGDSLLDVVVENNLDIDGFGACEGTLACSTCHLIFEDHIYEKLDAITDEENDMLDLAYGLTDRSRLGCQICLTKSMDNMTVRVPETVADARQSIDVGKWS [T183W]
scaled log2 fold change [1]: -0.19 | scaled log2 fold change [2]: 0.214

MAAAGGARLLRAASAVLGGPAGRWLHHAGSRAGSSGLLRNRGPGGSAEASRSLSVSARARSSSEDKITVHFINRDGETLTTKGKVGDSLLDVVVENNLDIDGFGACEGTLACSTCHLIFEDHIYEKLDAITDEENDMLDLAYGLTDRSRLGCQICLTKSMDNMTVRVPETVADARQSIDVGKRS [T183R]
scaled log2 fold change [1]: 0.102 | scaled log2 fold change [2]: -0.367

MAAAGGARLLRAASAVLGGPAGRWLHHAGSRAGSSGLLRNRGPGGSAEASRSLSVSARARSSSEDKITVHFINRDGETLTTKGKVGDSLLDVVVENNLDIDGFGACEGTLACSTCHLIFEDHIYEKLDAITDEENDMLDLAYGLTDRSRLGCQICLTKSMDNMTVRVPETVADARQSIDVGKGS [T183G]
scaled log2 fold change [1]: 0.353 | scaled log2 fold change [2]: -1.07

MAAAGGARLLRAASAVLGGPAGRWLHHAGSRAGSSGLLRNRGPGGSAEASRSLSVSARARSSSEDKITVHFINRDGETLTTKGKVGDSLLDVVVENNLDIDGFGACEGTLACSTCHLIFEDHIYEKLDAITDEENDMLDLAYGLTDRSRLGCQICLTKSMDNMTVRVPETVADARQSIDVGKDS [T183D]
scaled log2 fold change [1]: 0.0532 | scaled log2 fold change [2]: -0.222

MAAAGGARLLRAASAVLGGPAGRWLHHAGSRAGSSGLLRNRGPGGSAEASRSLSVSARARSSSEDKITVHFINRDGETLTTKGKVGDSLLDVVVENNLDIDGFGACEGTLACSTCHLIFEDHIYEKLDAITDEENDMLDLAYGLTDRSRLGCQICLTKSMDNMTVRVPETVADARQSIDVGKNS [T183N]
scaled log2 fold change [1]: -0.0614

MAAAGGARLLRAASAVLGGPAGRWLHHAGSRAGSSGLLRNRGPGGSAEASRSLSVSARARSSSEDKITVHFINRDGETLTTKGKVGDSLLDVVVENNLDIDGFGACEGTLACSTCHLIFEDHIYEKLDAITDEENDMLDLAYGLTDRSRLGCQICLTKSMDNMTVRVPETVADARQSIDVGKHS [T183H]
scaled log2 fold change [1]: -0.16 | scaled log2 fold change [2]: -0.49

MAAAGGARLLRAASAVLGGPAGRWLHHAGSRAGSSGLLRNRGPGGSAEASRSLSVSARARSSSEDKITVHFINRDGETLTTKGKVGDSLLDVVVENNLDIDGFGACEGTLACSTCHLIFEDHIYEKLDAITDEENDMLDLAYGLTDRSRLGCQICLTKSMDNMTVRVPETVADARQSIDVGKPS [T183P]
scaled log2 fold change [1]: 0.166

MAAAGGARLLRAASAVLGGPAGRWLHHAGSRAGSSGLLRNRGPGGSAEASRSLSVSARARSSSEDKITVHFINRDGETLTTKGKVGDSLLDVVVENNLDIDGFGACEGTLACSTCHLIFEDHIYEKLDAITDEENDMLDLAYGLTDRSRLGCQICLTKSMDNMTVRVPETVADARQSIDVGKFS [T183F]
scaled log2 fold change [1]: 0.0658 | scaled log2 fold change [2]: -0.199
